These results are taken from PMC2175353.

Read-outs that look alike come from different tables or passages of the source.

Data set [1] deals with T1, v-Myb AMV (bacterial, pVM2028) (avian myeloblastosis virus (AMV), UniProt P01104 1-382). The data set is described as follows: EMSA.
Data set [2] addresses T1, v-Myb AMV (bacterial, pVM2028). The data set can be described thus: EMSA. This is another data set of the same source. On the technique in general: A gel shift assay detects complexes by their altered migration in electrophoresis.

T1 sequence (P01104 whole entry): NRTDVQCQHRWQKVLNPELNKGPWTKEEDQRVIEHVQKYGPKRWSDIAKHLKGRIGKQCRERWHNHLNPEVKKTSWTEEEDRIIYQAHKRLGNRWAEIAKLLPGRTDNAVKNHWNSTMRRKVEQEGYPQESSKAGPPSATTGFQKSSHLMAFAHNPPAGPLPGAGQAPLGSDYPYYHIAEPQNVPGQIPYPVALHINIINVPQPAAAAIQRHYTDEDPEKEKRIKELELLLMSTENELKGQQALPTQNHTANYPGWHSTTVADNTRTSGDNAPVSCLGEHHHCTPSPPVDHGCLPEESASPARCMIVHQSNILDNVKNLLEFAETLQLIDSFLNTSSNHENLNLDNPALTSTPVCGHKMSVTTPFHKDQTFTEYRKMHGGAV

B1: MBS3wt (Myb site 3, lysozyme -2.7 kb enhancer) (dsDNA)
DNA 1: GGCTGGGAATATTTCTGTTTGACCACCATGGAG
DNA 2: CTCCATGGTGGTCAAACAGAAATATTCCCAGCC
In the case of B1, the binding result in data set [1] was “no binding”.

B2: mimA (mim-1 promoter Myb site A) (dsDNA)
DNA 1: GCTCTAAAAAACCGTTATAATGTACAGATATCTT
DNA 2: AAGATATCTGTACATTATAACGGTTTTTTAGAGC
For the molecule B2, in data set [2], the binding result is recorded as “binds”.
